These results are taken from patent US20040067513A1.

The target of this experiment is OB-RL(wt). Briefly: cell-based or functional assay.

Consider Leptin (ligand), for which the Reporter Activity (GT1-7 cells, leptin +; 3041 without leptin) turned out to be 27000; the Reporter Activity (cells co-transfected with 84569 cDNA, leptin +; 4146 without leptin) was determined as 7600; the Reporter Activity (cells co-transfected with control vector, leptin +; 4316.5 without leptin) is 25000.
